Test results as given in PMC13398683.

Target: Endothelin Receptor Type B (human (endogenous in LGG275 and other patient-derived glioma lines)) (UniProt P24530)
Chain of UniProt P24530 (P24530 27-442): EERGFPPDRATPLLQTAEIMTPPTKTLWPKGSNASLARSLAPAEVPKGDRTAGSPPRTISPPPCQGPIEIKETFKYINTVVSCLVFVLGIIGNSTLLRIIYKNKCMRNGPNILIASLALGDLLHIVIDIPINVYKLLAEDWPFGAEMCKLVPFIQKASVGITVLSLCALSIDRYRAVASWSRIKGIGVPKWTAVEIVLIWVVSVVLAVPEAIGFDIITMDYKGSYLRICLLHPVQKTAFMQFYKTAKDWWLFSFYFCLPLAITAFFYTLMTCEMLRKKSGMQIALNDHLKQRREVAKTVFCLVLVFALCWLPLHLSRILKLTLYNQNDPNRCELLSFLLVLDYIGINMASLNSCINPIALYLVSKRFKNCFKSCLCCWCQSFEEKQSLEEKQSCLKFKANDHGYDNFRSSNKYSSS

- growth of LGG275 cells, dose-response with ET-3 (4 pM-40 nM): lowest concentration with growth inhibition: 0.4 nM
Binder: CTCFTYKDKECVYYCHLDIIW (ligand) [Endothelin 3]
